Values of other authors as cited in article PMC13507575.

Molecular target: IL-1β (Homo sapiens) (UniProt P01584)

Kd: 4.1 nM
Substance: canakinumab
